# According to patent US20030148958A1 (PROCTER AND GAMBLE, published 2003):
# Ends that are not written are not given here.
# T1: corticotropin releasing factor 2 receptor
# T1 sequence (Q13324 whole entry, species assumed, looked up): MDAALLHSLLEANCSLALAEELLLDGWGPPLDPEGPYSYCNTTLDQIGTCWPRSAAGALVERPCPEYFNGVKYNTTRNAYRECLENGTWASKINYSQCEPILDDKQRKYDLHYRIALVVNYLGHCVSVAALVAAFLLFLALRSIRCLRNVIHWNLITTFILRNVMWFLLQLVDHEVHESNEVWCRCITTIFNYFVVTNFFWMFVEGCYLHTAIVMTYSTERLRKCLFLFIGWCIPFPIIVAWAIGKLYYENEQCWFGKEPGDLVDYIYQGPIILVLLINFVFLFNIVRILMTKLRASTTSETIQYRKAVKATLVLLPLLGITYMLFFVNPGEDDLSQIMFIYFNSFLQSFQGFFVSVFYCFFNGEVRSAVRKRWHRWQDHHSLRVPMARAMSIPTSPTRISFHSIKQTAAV
# Target: corticotropin releasing factor 1 receptor
# Assay: cell-based or functional assay
# Throughout, for CRF1R Emax: reference of the scale not given here.
# Throughout, for CRF2R Emax: reference of the scale not given here.
Binder,CRF1R EC50,CRF1R Emax
IVLSLDVPIGLLQILLEQERARAAREQATTNARILARV-NH2 [SEQ ID NO 119],> 0.1 µM,3%
IVLSLDVPIGLLQILLEQTRADAAREQATTNARILARV-NH2 [SEQ ID NO 126],> 0.1 µM,7%
IVLSLDVPIGLLQILLEQARAEAAREQATTNARILARV-NH2 [SEQ ID NO 122],1 µM,10.7%
IVLSLDVPIGLLQILLEQAKADAAREQATTNARILARV-NH2 [SEQ ID NO 131],> 0.1 µM,8%
IVLSLDVPIGLLQILLEQARADAAREQATTNARILARV-NH2 [SEQ ID NO 130],> 0.1 µM,9%
IVLSLDVPIGLLQILLEQTKARAAREQATTNARILARV-NH2 [SEQ ID NO 129],> 0.1 µM,
IVLSLDVPIGLLQILLEQERQEAAREQATTNARILARV-NH2 [SEQ ID NO 118],> 0.1 µM,5%
IVLSLDVPIGLLQILLEQTRARAAREQATTNARILARV-NH2 [SEQ ID NO 128],> 0.1 µM,8%
IVLSLDVPIGLLQILLEQEKEKKRKETNARILARV-NH2 [SEQ ID NO 132],> 0.1 µM,8%
IVLSLDVPIGLLQILLEQAARAAREQATTNARILARV-NH2 [SEQ ID NO 135],> 0.1 µM,6%
IVLSLDVPIGLLQILLEQAKARAAREQATTNARILARV-NH2 [SEQ ID NO 127],> 0.1 µM,
IVLSLDVPIGLLQILLEQEKQEAAREQATTNARILARV-NH2 [SEQ ID NO 125],> 0.1 µM,9%
IVLSLDVPIGLLQILLEQRRAAREQATTNARILARV-NH2 [SEQ ID NO 133],> 0.1 µM,4%
IVLSLDVPIGLLQILLEQARQEAAREQATTNARILARV-NH2 [SEQ ID NO 123],> 1 µM,9.6%
ZGPPISIDLPFQLLRKMIEIEKQEKEKQQATTNRLLLDTI (C-terminal amide) [SEQ ID NO 13],0.0977 µM,69%
ZGPPISIDLPFQLLRKMIEIEKQEKEKQQAAANRLLLDTV (C-terminal amide) [SEQ ID NO 15],0.0853 µM,86%
ZGPPISIDLPFQLLRKMIEIEKQEKEKQQATNNRLLLDTI (C-terminal amide) [SEQ ID NO 14],0.109 µM,92%
IVLSLDVPIGLLQILLEQAAAAREQATTNARILARV-NH2 [SEQ ID NO 134],> 0.1 µM,7%
IVLSLEVPIGLLQILLEQARARAAREQATTNARILARV-NH2 [SEQ ID NO 120],0.1 µM,7%
IVLSLDVPIGLLQILLEQTKARAAREQATTNARILARV-NH2 [SEQ ID NO 117],0.1 µM,
IVLSLDVPIGLLQILLEQAKQEAAREQATTNARILARV-NH2 [SEQ ID NO 124],> 0.1 µM,6%

# Results, then the binder that gave them:
CRF1R EC50,CRF1R Emax,Binder
> 0.1 µM,4%,SQEIVLSLDVPIGLLREVLEMTKADQLAQQAHSNRKLLDIA-NH2 [SEQ ID NO 152]
> 0.1 µM,5%,IVLSLDVPIGLLQILLEQAAREQATTNARILARV-NH2 [SEQ ID NO 138]
> 0.1 µM,7%,ZGIVLSLDVPIGLLRKMIEIEKQEKEKQQAANNRLLLDTI (C-terminal amide) [SEQ ID NO 153]
> 0.1 µM,7%,IVLSLDVPIGLLQILLEQARAAAREQATTNARILARV-NH2 [SEQ ID NO 141]
> 0.1 µM,4%,IVLSLDVPIGLLQILLEQRARAAREQATTNARILARV-NH2 [SEQ ID NO 137]
0.0435 µM,85.3%,ZGPPISIDLSLELLRKMIEIEKQEKEKQQATTNARILARV (C-terminal amide) [SEQ ID NO 142]
0.295 µM,100%,ZGPPISIDLPFQLLRKMIEIEKQEKEKQQATTNARILARV (C-terminal amide) [SEQ ID NO 148]
0.232 µM,100%,ZGPPISIDLPLELLRKMIEIEKQEKEKQQATTNARILARV (C-terminal amide) [SEQ ID NO 143]
1 µM,5.7%,ZGPPISIDLPIQLLRKMIEIEKQEKEKQQATTNARILARV (C-terminal amide) [SEQ ID NO 150]
0.102 µM,96%,ZGPPISIDLPFYLLRKMIEIEKQEKEKQQATTNARILARV (C-terminal amide) [SEQ ID NO 147]
1 µM,19.9%,ZGPPISIDLPTYLLRKMIEIEKQEKEKQQATTNARILARV (C-terminal amide) [SEQ ID NO 151]
0.567 µM,100%,ZGPPISIDLPLQLLRKMIEIEKQEKEKQQATTNARILARV (C-terminal amide) [SEQ ID NO 144]
0.103 µM,100%,ZGPPISIDLPFHLLRKMIEIEKQEKEKQQATTNARILARV (C-terminal amide) [SEQ ID NO 146]
1 µM,40.7%,ZGPPISIDLPIYLLRKMIEIEKQEKEKQQATTNARILARV (C-terminal amide) [SEQ ID NO 149]
0.197 µM,91.3%,ZGPPISIDLPLHLLRKMIEIEKQEKEKQQATTNARILARV (C-terminal amide) [SEQ ID NO 145]
> 0.1 µM,4%,IVLSLDVPIGLLQILLEQAAAREQATTNARILARV-NH2 [SEQ ID NO 139]
> 0.1 µM,8%,IVLSLDVPIGLLQILLEQRAAREQATTNARILARV-NH2 [SEQ ID NO 136]

# Target: T1, corticotropin releasing factor 2 …
# Assay: cell-based or functional assay
Binder,CRF2R EC50,CRF2R Emax
IVLSLDVPIGLLQILLEQERARAAREQATTNARILARV-NH2 [SEQ ID NO 119],0.00357 µM,95%
IVLSLDVPIGLLQILLEQTRADAAREQATTNARILARV-NH2 [SEQ ID NO 126],0.013 µM,91%
IVLSLDVPIGLLQILLEQARAEAAREQATTNARILARV-NH2 [SEQ ID NO 122],0.00331 µM,97%
IVLSLDVPIGLLQILLEQAKADAAREQATTNARILARV-NH2 [SEQ ID NO 131],0.00525 µM,91%
IVLSLDVPIGLLQILLEQARADAAREQATTNARILARV-NH2 [SEQ ID NO 130],0.00857 µM,92%
IVLSLDVPIGLLQILLEQTKARAAREQATTNARILARV-NH2 [SEQ ID NO 129],0.00383 µM,
IVLSLDVPIGLLQILLEQERQEAAREQATTNARILARV-NH2 [SEQ ID NO 118],0.0146 µM,100%
IVLSLDVPIGLLQILLEQTRARAAREQATTNARILARV-NH2 [SEQ ID NO 128],0.00285 µM,98%
IVLSLDVPIGLLQILLEQEKEKKRKETNARILARV-NH2 [SEQ ID NO 132],0.00753 µM,88%
IVLSLDVPIGLLQILLEQAARAAREQATTNARILARV-NH2 [SEQ ID NO 135],> 0.1 µM,76%
IVLSLDVPIGLLQILLEQAKARAAREQATTNARILARV-NH2 [SEQ ID NO 127],0.00779 µM,
IVLSLDVPIGLLQILLEQEKQEAAREQATTNARILARV-NH2 [SEQ ID NO 125],0.00447 µM,99%
IVLSLDVPIGLLQILLEQRRAAREQATTNARILARV-NH2 [SEQ ID NO 133],0.0122 µM,88%
IVLSLDVPIGLLQILLEQARQEAAREQATTNARILARV-NH2 [SEQ ID NO 123],0.00349 µM,93.8%
ZGPPISIDLPFQLLRKMIEIEKQEKEKQQATTNRLLLDTI (C-terminal amide) [SEQ ID NO 13],0.00388 µM,79%
ZGPPISIDLPFQLLRKMIEIEKQEKEKQQAAANRLLLDTV (C-terminal amide) [SEQ ID NO 15],0.00656 µM,97%
ZGPPISIDLPFQLLRKMIEIEKQEKEKQQATNNRLLLDTI (C-terminal amide) [SEQ ID NO 14],0.00633 µM,90%
IVLSLDVPIGLLQILLEQAAAAREQATTNARILARV-NH2 [SEQ ID NO 134],> 0.1 µM,19%
IVLSLEVPIGLLQILLEQARARAAREQATTNARILARV-NH2 [SEQ ID NO 120],0.0699 µM,100%
IVLSLDVPIGLLQILLEQTKARAAREQATTNARILARV-NH2 [SEQ ID NO 117],0.00941 µM,
IVLSLDVPIGLLQILLEQAKQEAAREQATTNARILARV-NH2 [SEQ ID NO 124],0.00349 µM,94%

# The next lines start with the values.
CRF2R EC50,CRF2R Emax,Binder
> 0.1 µM,19%,SQEIVLSLDVPIGLLREVLEMTKADQLAQQAHSNRKLLDIA-NH2 [SEQ ID NO 152]
0.059 µM,46%,IVLSLDVPIGLLQILLEQAAREQATTNARILARV-NH2 [SEQ ID NO 138]
0.00928 µM,97%,ZGIVLSLDVPIGLLRKMIEIEKQEKEKQQAANNRLLLDTI (C-terminal amide) [SEQ ID NO 153]
> 0.1 µM,29%,IVLSLDVPIGLLQILLEQARAAAREQATTNARILARV-NH2 [SEQ ID NO 141]
0.0369 µM,100%,IVLSLDVPIGLLQILLEQRARAAREQATTNARILARV-NH2 [SEQ ID NO 137]
0.00908 µM,77%,ZGPPISIDLSLELLRKMIEIEKQEKEKQQATTNARILARV (C-terminal amide) [SEQ ID NO 142]
0.00945 µM,51.5%,ZGPPISIDLPFQLLRKMIEIEKQEKEKQQATTNARILARV (C-terminal amide) [SEQ ID NO 148]
0.0111 µM,85.5%,ZGPPISIDLPLELLRKMIEIEKQEKEKQQATTNARILARV (C-terminal amide) [SEQ ID NO 143]
0.0347 µM,70.5%,ZGPPISIDLPIQLLRKMIEIEKQEKEKQQATTNARILARV (C-terminal amide) [SEQ ID NO 150]
0.00675 µM,94%,ZGPPISIDLPFYLLRKMIEIEKQEKEKQQATTNARILARV (C-terminal amide) [SEQ ID NO 147]
0.0367 µM,96%,ZGPPISIDLPTYLLRKMIEIEKQEKEKQQATTNARILARV (C-terminal amide) [SEQ ID NO 151]
0.00916 µM,85.5%,ZGPPISIDLPLQLLRKMIEIEKQEKEKQQATTNARILARV (C-terminal amide) [SEQ ID NO 144]
0.0082 µM,84.5%,ZGPPISIDLPFHLLRKMIEIEKQEKEKQQATTNARILARV (C-terminal amide) [SEQ ID NO 146]
0.0262 µM,95.5%,ZGPPISIDLPIYLLRKMIEIEKQEKEKQQATTNARILARV (C-terminal amide) [SEQ ID NO 149]
0.0078 µM,69%,ZGPPISIDLPLHLLRKMIEIEKQEKEKQQATTNARILARV (C-terminal amide) [SEQ ID NO 145]
0.0426 µM,60%,IVLSLDVPIGLLQILLEQAAAREQATTNARILARV-NH2 [SEQ ID NO 139]
0.0234 µM,68%,IVLSLDVPIGLLQILLEQRAAREQATTNARILARV-NH2 [SEQ ID NO 136]
